Source: IntAct's records for PubMed 28869608

B1: Protein canopy homolog 2 (Mus musculus), Q9QXT0 (parent)
chain: MKGWGWLALLLGVLLGTAWARRSQDLHCGACRALVDELEWEIARVDPKKTIQMGSFRINPDGSQSVVEVPYARSEAHLTELLEEVCDRMKEYGEQIDPSTHRKNYVRVVSRNGESSELDLQGIRIDSDISGTLKFACESIVEEYEDELIEFFSREADNVKDKLCSKRTDLCDHALHRSHDEL
partner: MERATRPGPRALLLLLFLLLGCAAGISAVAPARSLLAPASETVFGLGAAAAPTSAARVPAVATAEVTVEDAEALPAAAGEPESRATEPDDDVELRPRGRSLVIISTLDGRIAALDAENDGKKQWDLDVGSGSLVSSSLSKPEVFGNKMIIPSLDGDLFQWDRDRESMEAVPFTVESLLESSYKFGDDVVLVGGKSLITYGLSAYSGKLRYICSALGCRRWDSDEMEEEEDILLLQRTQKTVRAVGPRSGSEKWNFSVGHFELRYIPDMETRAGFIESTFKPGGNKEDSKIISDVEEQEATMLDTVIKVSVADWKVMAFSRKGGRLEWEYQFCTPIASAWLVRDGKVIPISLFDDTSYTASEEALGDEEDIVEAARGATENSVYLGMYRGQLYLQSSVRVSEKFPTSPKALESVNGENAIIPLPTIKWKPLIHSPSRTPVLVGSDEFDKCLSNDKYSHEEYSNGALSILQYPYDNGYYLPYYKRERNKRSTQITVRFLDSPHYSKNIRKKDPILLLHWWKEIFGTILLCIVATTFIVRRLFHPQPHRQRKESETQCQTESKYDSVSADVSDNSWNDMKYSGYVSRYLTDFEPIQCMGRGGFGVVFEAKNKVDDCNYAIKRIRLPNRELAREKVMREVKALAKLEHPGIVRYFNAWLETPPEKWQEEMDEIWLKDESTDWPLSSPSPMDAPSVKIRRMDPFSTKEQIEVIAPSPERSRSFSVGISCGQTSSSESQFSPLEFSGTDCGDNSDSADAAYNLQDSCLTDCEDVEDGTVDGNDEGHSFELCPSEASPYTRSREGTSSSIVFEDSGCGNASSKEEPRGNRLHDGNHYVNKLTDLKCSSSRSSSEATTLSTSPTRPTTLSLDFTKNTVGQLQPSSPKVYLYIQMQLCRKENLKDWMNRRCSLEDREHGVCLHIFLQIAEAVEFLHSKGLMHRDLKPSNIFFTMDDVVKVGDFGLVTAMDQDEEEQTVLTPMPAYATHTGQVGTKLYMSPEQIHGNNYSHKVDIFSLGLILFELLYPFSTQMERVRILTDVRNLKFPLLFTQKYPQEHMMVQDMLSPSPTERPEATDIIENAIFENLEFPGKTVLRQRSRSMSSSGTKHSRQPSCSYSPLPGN

Variants of: B1
Details: with Eif2ak3, Q9Z2B5

Variant | effect of a mutation on the interaction
C28A;C31A;C86A;C137A;C164A;C171A | disrupting interaction

Variants of: B1
Details: with Eif2ak3, Q9Z2B5
Remark: another data set of the same source

Variant | effect of a mutation on the interaction
C28A;C31A;C86A | increasing interaction
